Test: soluble on expression in E. coli; label from the status in PepcDB or PDB records

Row | Sequence | soluble on expression in E. coli
1 | TGAQTKLTQTGAITTVNVDHLKANPSSSIVNTLAGNVAGVLAMQTSGQPGKNVSEFWIRGISTFGASTSAYVLVDGFERSMDEINIEDIESFSVLKDASATAIYGSKGANGVVLITTKHGKAG | not soluble
2 | MSLKRQRIVIKIGSSSLTTKQGALDLEKLEGYVRAIVNLRKAGHEVILISSGAVAAGFSRLGYPVRPTTMAGKQAAAAVGQALLMQHYMERFHQHGIIAAQLLLTRKDFQNQTQYTNAYSALMELLKRGALPIINENDSTSIAELTFGDNDMLSALVSGLIHAHTLCILTDVNGLYDANPKTHPNAKRYQYLPTIPDEMLQMGGEAGSNVGTGGMKSKVAAAQTALSLGVDVFIGKASGEHALLDILSGKGDGTYVGNTGDLMEGKTKQWIRLHSPVSGVVRIDQGAERAIMNEGKSLLPAGVTSVHGTFQAGDVVHIWNEQNKVIAKGQVTLSSEQLRKVQGRKSDEAKQLIPLVRDEVVHRDQLVIQEKELNESEGHHHHHH | not soluble
3 | KSIVKIRNRMAAETQTLNFGPEWLRALSSGGSITSPPLSPALPKYKLADYRYGREEMLALFLKDNKIPSDLLDKEFLPILQEEPLPPLALVPFTEEEQRNFSMSVNSAAVLRLTGRGGGGTVVGAPRGRSSSRGRGRGRGECGFYQRSFDEVEGVFGRGGGREMHRSQSWEERGDRRFEKPGRKDVGKKNGYYCMYSPVLLLGQPLCQGRPNFEEGGPTSVGRKHEFIRSESENWRIFREEQNGEDEDGGWRLAGSRRDGERWRPHSPDGPRSAGWREHMERRRRFEFDFRDRDDERGYRRVRSGSGSIDDDRDSLPEWCLEDAEEEMGTFDSSGAFLSLKKVQKEPIPEEQEMDFRPVDEGEECSDSEGSHNEEAKEPDKTNKKEGEKTDRVGVASEETPQTSSSSARPGTPSDHQSQEASQFERKDEPKTEQTEKAEEETRMENSLPAKVPSRGDEMVADVQQPLSQIPSDTASPLLILPPPVPNPSPTLRPVETPVVGAPGMGSVSTEPDDEEGLKHLEQQAEKMVAYLQDSALDDERLASKLQEHRAKGVSIPLMHEAMQKWYYKDPQGEIQGPFNNQEMAEWFQAGYFTMSLLVKRACDESFQPLGDIMKMWGRVPFSPGPAPPPHMGELDQERLTRQQELTALYQMQHLQYQQFLIQQQYAQVLAQQQKAALSSQQQQQLALLLQQFQTLKMRISDQNIIPSVTRSVSVPDTGSIWELQPTASQPTVWEGGSVWDLPLDTTTPGPALEQLQQLEKAKAAKLEQERREAEMRAKREEEERKRQEELRRQQEEILRRQQEEERKRREEEELARRKQEEALRRQREQEIALRRQREEEERQQQEEALRRLEERRREEEERRKQEELLRKQEEEAAKWAREEEEAQRRLEENRLRMEEEAARLRHEEEERKRKELEVQRQKELMRQRQQQQEALRRLQQQQQQQQLAQMKLPSSSTWGQQSNTTACQSQATLSLAEIQKLEEERERQLREEQRRQQRELMKALQQQQQQQQQKLSGWGNVSKPSGTTKSLLEIQQEEARQMQKQQQQQQQHQQPNRARNNTHSNLHTSIGNSVWGSINTGPPNQWASDLVSSIWSNADTKNSNMGFWDDAVKEVGPRNSTNKNKNNASLSKSVGVSNRQNKKVEEEEKLLKLFQGVNKAQDGFTQWCEQMLHALNTANNLDVPTFVSFLKEVESPYEVHDYIRAYLGDTSEAKEFAKQFLERRAKQKANQQRQQQQLPQQQQQQPPQQPPQQPQQQDSVWGMNHSTLHSVFQTNQSNNQQSNFEAVQSGKKKKKQKMVRADPSLLGFSVNASSERLNMGEIETLDDY | soluble
4 | SRRLRTPLQDLTRAATSLAAGNSRIRVPAGGAGPEVATLAHAFNTMADRLEHTEQVRRQMLSDLAHEMGTPLSVLTAYLDGLQDGVVDWNNANHTIMADQLTRLTRLMEDIDYVSRAQEHRIDLDLAEEGLGD | not soluble
5 | MGNKAERHRAIQEIVRREEIGTQKELVERLRQLGFEVTQATVSRDIAELGLARIALGKGRHRYVLPAADLPENAYEELKRQFGLFVRDVDRGGNLLVVKTAEGHASGIAYLLDRLRRDEIVGTLAGDDTILVVARTEEAAQALEDEFAGLLVEGRALRRALSGS | soluble
6 | MSLELSPTYQTERFTKFSDTLKEFKIEQNNEQNPIDPFNIIREFRSAAGQLALDLANSGDESNVISSKDWELEARFWHLVELLLVFRNADLDLDEMELHPYNSRGLFEKKLMQDNKQLYQIWIVMVWLKENTYVMERPKNVPTSKWLNSITSGGLKSCDLDFPLRENTNVLDVKDKEEDHIFFKYIYELILAGAIDEALEEAKLSDNISICMILCGIQEYLNPVIDTQIANEFNTQQGIKKHSLWRRTVYSLSQQAGLDPYERAIYSYLSGAIPNQEVLQYSDWESDLHIHLNQILQTEIENYLLENNQVGTDELILPLPSHALTVQEVLNRVASRHPSESEHPIRVLMASVILDSLPSVIHSSVEMLLDVVKGTEASNDEGHHHHHH | not soluble
7 | MVTLASHLDACPDAAIWGSSKTENLGVEKIIVNVISNSNIRYVLVCGTESRGHLAGHSLLAIHANGIDEQGRITGSQGAIPFIENISGTAVERFQQQVTVLNRIGLNDPEEIRRIVEDYRDKGEAYPEEPMLVCAPKKRQTSFAVPTSGDVIISGEFVMDSKAGIIYTAESL | not soluble
8 | MGSDKIHHHHHHMALKDIISQVYRRLFNVIATVCPVRKHVVLFEAFNGKVPMDNPLYVYEALQTAHPDWKLVWSVKRQLVVEAQEKYPKLNIIPRFSAKWLLVAPVAEFWVLNARMPYWLKKNAKTTYIQTWHGTPLKRLGIDIPKVSMPGTDTSQYRQNFTAESKRWDYLIAPNQFSKDVFRRAFDFNNQFLDYGYPRNDRLVHQRQDYDAIAAIKKRIVGNKMGKVILYAPTWRDDFFIRKGMYKMNLPFSLAAVVKRLNKEDVLIIRPHYLVAESINIQGFEDNVKLCVDEDINDLYLISDLLITDYSSVMFDYAILNRPMLFYPYDLAHYQGDVRGFYFDYNKVPGPIVTNEQDFLAKLDQFLTNDGYPNETAKMMAFRTQFTEWEQGTASQRVVKLITSIDQNANNYTG | not soluble
9 | MNKISPLGSNWNEFEQQIFNEEEIRESNLRVALIKELITSRQQLGISQKQLETLSGVKQPMIARIEKGQTNPQLETLLKLLAPLGKTLSIVPLRVKNA | not soluble
10 | MNRSALDFRHFVDHLRRQGDLVDVHTEVDANLEIGAITRRVYERRAPAPLFHNIRDSLPGARVLGAPAGLRADRARAHSRLALHFGLPEHSGPRDIVAMLRAAMRAEPIAPRRLERGPVQENVWLGEQVDLTRFPVPLLHEQDGGRYFGTYGFHVVQTPDGSWDSWSVGRLMLVDRNTLAGPTIPTQHIGIIREQWRRLGKPTPWAMALGAPPAALAAAGMPLPEGVSEAGYVGALVGEPVEVVRTQTNGLWVPANTEIVLEGEISLDETALEGPMGEYHGYSFPIGKPQPLFHVHALSFRDQPILPICVAGTPPEENHTIWGTMISAQLLDVAQNAGLPVDMVWCSYEAATCWAVLSIDVQRLAALGTDAAAFAARVAETVFGSHAGHLVPKLILVGNDIDVTEIDQVVWALATRAHPLHDHFAFPQIRDFPMVPYLDAEDKARGSGGRLVINCLYPEQFAGQMRAATASFRHAYPTALRRRVEERWSDYGFGDALEHHHHHH | not soluble
11 | MKLVNVTNSYKQLVNKQLENTDAYFVKVYSAGNTTAVYSEAAHHVEVLIMNKNRRIRPTEVKEILAKLLKRLPKEAYDPDEISIIELNHVTEVSVPLKVSLMEN | not soluble
12 | MGSDKIHHHHHHMSLASVFNIAGSGMSAQSTRLNTVASNIANAETVSSSVDKTYRARHPVFSTMFQQAQGDSGSLFADQDSSGAGVQVLGIVEDQSSLMPRYEPNHPAADANGYVYYPNVNVVEEMADMISASRAFQTNAEMMNTAKQMMQKVLTLGQ | not soluble
13 | EQAEAQLAELDLLASMFPGENELIVNDQLAVAELKDCIEKKTMEGRSSKVYFTINMNLDVSDEKMAMFSLACILPFKYPAVLPEITVRSVLLSRSQQTQLNTDLTAFLQKHCHGDVCILNATEWVREHASGYVSRDTSS | soluble
14 | YFNLQFGANLDVYLTKKWSVGADLLLSFKTYQYKNTLLGYSELTMKENQLWLELPIVLKYTMGQKKLRYYLQAGGAVSMILSSNSNIVRKDAATQSNQAIGPDINTRDLRNMFNYSLVGGGGIRYKAGYGYLVLDVKYMYGLNNISDMDNKYSNDELIYKYGYIDNDFTLNSLMFSIGYYKSFYKPKKLPTYEK | not soluble
15 | MGKHKVGAVFLAGVLAMGTVMTGCSGKDETEGKTVIEMVQYKPEAVDIFEQFQDEFNATHDDIYLKIDSPNDAMTILKTRFIREDNPDIIGIGGDINYSNFLDADMLMDISDFEGLNDIKEKYLEMNKDLEYVPKDGVYAVPYMANAAGILFNRDMFEEHGWEVPTTWTEFTNLCDQIQSEGIQPLYFGFKDTWTTLAPWNAIAVSLCDSDLTYQVNSGKTTFAENYREVAEKEKALLTYGQKDPVSQGYNDACTAFARGASAMFTIGSYAISQIKSVNPDMNIGSFVFPANEDADKNVLNSGNDLMFCVMKDCKNKEAAYEVLSYMLEDENVKKYLNAQSAVPCKKGDFEVTPELEEMRDYIENGIVADYQDHHYPSEMSVDAMIQTYLMDDSADATDTFMKRFDKEWIRYNRDIVAKVKAYEEGNDHE | not soluble
16 | MAHHHHHHMHLLHDFKNIYCLLPSDYKNFLQKIRTLPCSVNKNMQGEKEIYILKKYMKMLNYEFITFIHGPYVLHICDPFYKIYLEWENGWKLYPLYQQNAERHFRENKITHLRKEGFSEILICHDAFANCPSDEEKMNYLSSVLQRTKFSKCSSIICGPAAIAPPPVVSPDIYL | not soluble
17 | SSGNHIFKGRAAGIAVNENGKGLITENVIRENQWGGVDIRRGGIPVLRSNLICFGYSDGVVVGDEGKGLIEGNTIYANKGCGVWMMSSSLPHVTSNHVSYNGLYGVAVFSQKDGSSELPRGHRAQENFSEDGDAILWETELEKEDDPLRRPITIALVESNSINHNGASGLYVQSSEALHVITNVIHANGDRGITVAQSSQPTRVANNSISCNRQSGVKVEAQCKVELRGNGIYDNRGHGIITKGDSTIVIENDIIGNRGSGLQLLPRSDTKVIKNRIHSFRAYGIAVRGRAKALVQENIIFQGKTSKTIFQQISNNRECIMQNNKFLVFKKKSDTWR | soluble
18 | MSLVEMVNRPYASAFEAFAVKNPDVLCLSADLTSSCEIDGFRDRHPDQFLSLGMAEQNMMSFAGGLGLAGYRPFLHSFGVFLYRRPYDQLMASVAYPRRKVRLMGFLPGITTPGGMTHQAIEDVAVMRSIPNMSILETGDATEVESICEAADSIDGPVYCRVLRGSIPRLFDTPIRVGEMRELALGADVLVVTSGIATEEALRARDALSNAGVSIRHLHIHTIKPFNEQALLDHIGSVSKGVVVLENHVITGGVGSLVAEIMADNGVGKPLVRLGLNDTYAHGGSRGYLMKHYGLDAGALVRGIERIIGASTGIDEEALASARVDAVHSAVKAEAEGHHHHHH | not soluble
19 | MPTTQLHHHYVLCGWHVRSALTLPELPPWSATATPVDADVVIEEGEVPDRLDLHDPVESWLSVGRDGSVLLQVPQVVRIHVHAGRAMRVQRLNRHDESWRLFLLGSALGYLCLQRSLFPLHAACLRIGTQTVAFAGHSGAGKSTLAAALLKRGHGLLSDDLTVIRLDSAGAIMVLPAFPRLKLWRDTLESLQLPVTDAPPVRPGMEKFDLRPSAGFDAAPVRLDAVVVLGDASEPHLQRLSPQHALPLLHGYLARPQAAVRMGLHAATFAHAAAIARQVPVWRLRRPRRFDALDITVDLIEAHVGALEHHHHHH | not soluble
20 | GPGSMANGVTANSMRVNVKAPDLGAFPLDHYSECKSQVEAYYRCLKSNEYVTPLCRDQMREYLQCRMDRGLMKPADLDGFGIPKTEFVPTRQHRIDLKQQWLRQKMNQVTVVWEENYRRDDLQVPDGYEREKGGGDGGGGNPKPVGEKVNT | not soluble

Source: the DeepSol protein solubility set
